Measurements as given in paper PMC10183829, “Shuffled ATG8 interacting motifs form an ancestral bridge between UFMylation and autophagy” (The EMBO Journal, 2023).
Numbering of substitutions follows the chain as printed. In names and notes the source's numbering stands.

B1: mCh-HsC53, Q96JB5 IDWG267WDGI; IDWG292WDGI; IDWG310WDGI (protein)
chain: MEDHQHVPIDIQTSKLLDWLVDRRHCSLKWQSLVLTIREKINAAIQDMPESEEIAQLLSGSYIHYFHCLRILDLLKGTEASTKNIFGRYSSQRMKDWQEIIALYEKDNTYLVELSSLLVRNVNYEIPSLKKQIAKCQQLQQEYSRKEEECQAGAAEMREQFYHSCKQYGITGENVRGELLALVKDLPSQLAEIGAAAQQSLGEAIDVYQASVGFVCESPTEQVLPMLRFVQKRGNSTVYEWRTGTEPSVVERPHLEELPEQVAEDAWDGIDFGVEAVSEGTDSGISAEAAGWDGIIFPESDSKDPGGDGWDGIDDAVALQITVLEAGTQAPEGVARGPDALTLLEYTETRNQFLDELMELEIFLAQRAVELSEEADVLSVSQFQLAPAILQGQTKEKMVTMVSVLEDLIGKLTSLQLQHLFMILASPRYVDRVTEFLQQKLKQSQLLALKKELMVQKQQEALEEQAALEPKLDLLLEKTKELQKLIEADISKRYSGRPVNLMGTSL
B2: mCh-HsC53^sAIM (W269A, W294A, W312A), Q96JB5 1-506 (natural protein)
chain: B1 chain with W267I, G269A, I270G, W292I, G294A, I295G, W310I, G312A, I313G

How the values were obtained:
GST-ATG8A, Q8LEM4 = molecular target: T1, GST-ATG8A, Q8LEM4; assay: microscopy-based protein-protein interaction assay (on-bead binding, confocal); conditions: chain shown with the change; 1 μM C53 protein; glutathione-sepharose beads with GST-ATG8A; parent: est. 1.0; read off a plot
T1 chain: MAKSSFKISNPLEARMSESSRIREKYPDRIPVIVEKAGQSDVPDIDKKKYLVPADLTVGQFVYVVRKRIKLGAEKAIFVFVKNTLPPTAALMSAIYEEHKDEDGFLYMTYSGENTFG

[1] = molecular target: GST-GABARAP (human), O95166; assay: microscopy-based on-bead protein-protein interaction assay; conditions: remark: other sources report otherwise
Chain of GST-GABARAP (human), O95166 (O95166 whole entry): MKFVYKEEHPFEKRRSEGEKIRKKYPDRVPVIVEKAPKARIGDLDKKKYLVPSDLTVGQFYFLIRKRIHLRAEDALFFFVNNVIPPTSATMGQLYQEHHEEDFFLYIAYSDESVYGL

Binder | response (normalized fluorescence) (GST-ATG8A, Q8LEM4) | percent less recruited than the wild type [1] [%]
B1 | 1.2 | 
B2 |  | 78
